# Results as given in patent US12723100 (CSPC MEGALITH BIOPHARMACEUTICAL, dated 2026).
# T1: rat Nectin-4 (rat, UniProt Q8R007 31-508 (mouse entry))
# T1 construct: Transiently expressed on 293T cells
# T1 chain: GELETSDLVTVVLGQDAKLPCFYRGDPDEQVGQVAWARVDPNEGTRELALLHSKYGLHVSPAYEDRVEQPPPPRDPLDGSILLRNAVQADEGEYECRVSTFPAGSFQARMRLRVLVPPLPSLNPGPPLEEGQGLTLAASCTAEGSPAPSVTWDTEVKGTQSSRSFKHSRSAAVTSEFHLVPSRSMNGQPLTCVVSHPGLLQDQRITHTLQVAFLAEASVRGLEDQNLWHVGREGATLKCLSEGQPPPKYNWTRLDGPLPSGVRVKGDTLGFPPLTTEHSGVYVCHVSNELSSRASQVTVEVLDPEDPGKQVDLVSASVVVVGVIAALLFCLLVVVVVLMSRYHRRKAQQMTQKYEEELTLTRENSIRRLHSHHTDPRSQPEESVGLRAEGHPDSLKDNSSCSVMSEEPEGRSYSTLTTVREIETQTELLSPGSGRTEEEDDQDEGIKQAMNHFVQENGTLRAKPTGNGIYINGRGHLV
# T2: full-length human Nectin-4 on cells (human, UniProt Q96NY8 32-510)
# T2 construct: the cell is named under assay; also called CHO-Nectin-4 cells; Nectin-4-CHO
# T2 sequence: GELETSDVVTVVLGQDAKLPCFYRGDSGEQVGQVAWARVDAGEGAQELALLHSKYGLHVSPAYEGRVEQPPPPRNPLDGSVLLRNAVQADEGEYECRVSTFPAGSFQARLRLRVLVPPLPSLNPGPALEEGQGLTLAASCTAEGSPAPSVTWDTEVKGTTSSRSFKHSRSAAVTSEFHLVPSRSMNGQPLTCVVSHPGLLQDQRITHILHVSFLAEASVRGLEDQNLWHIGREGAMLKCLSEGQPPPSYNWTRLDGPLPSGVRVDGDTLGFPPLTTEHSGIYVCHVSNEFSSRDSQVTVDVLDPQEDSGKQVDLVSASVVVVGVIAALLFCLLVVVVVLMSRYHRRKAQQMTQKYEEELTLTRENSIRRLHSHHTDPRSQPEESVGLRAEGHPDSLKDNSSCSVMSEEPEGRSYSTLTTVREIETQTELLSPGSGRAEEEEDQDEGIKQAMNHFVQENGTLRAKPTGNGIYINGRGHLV
# T3: mouse Nectin-4 (mouse, UniProt Q8R007 31-508)
# T3 construct: Transiently expressed on 293T cells; also called murine Nectin-4
# T3 sequence: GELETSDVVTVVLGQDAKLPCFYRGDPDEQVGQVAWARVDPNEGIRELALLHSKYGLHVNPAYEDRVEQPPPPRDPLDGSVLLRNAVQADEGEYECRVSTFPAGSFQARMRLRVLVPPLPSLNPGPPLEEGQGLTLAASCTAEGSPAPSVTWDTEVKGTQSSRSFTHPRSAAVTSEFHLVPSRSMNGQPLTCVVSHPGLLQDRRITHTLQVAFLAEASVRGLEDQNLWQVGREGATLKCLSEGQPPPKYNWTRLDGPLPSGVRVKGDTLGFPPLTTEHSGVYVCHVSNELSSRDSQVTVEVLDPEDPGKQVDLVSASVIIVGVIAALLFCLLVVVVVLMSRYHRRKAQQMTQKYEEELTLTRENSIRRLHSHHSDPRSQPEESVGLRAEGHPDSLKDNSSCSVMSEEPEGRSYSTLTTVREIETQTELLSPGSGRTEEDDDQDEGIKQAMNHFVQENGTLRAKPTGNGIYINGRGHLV
# Assays:
# rat Nectin-4 [1] = target: T1, rat Nectin-4; assay: flow cytometry, transfected 293T cells; + EC50 between 25 nM and 133 nM
# Method: (§1) CDNAs encoding Nectin-4 protein from cynomolgus monkey (SEQ ID NO: 62), rat (SEQ ID NO: 63), or mouse (SEQ ID NO: 64) were separately cloned into a pcDNA3.1-based mammalian expression plasmid. The respective plasmids were transfected to human 293T cells in a similar way described in Example 6. The binding EC50 of disclosed human Nectin-4 antibodies to species-specific Nectin-4 transiently expressed on 293T cell surface was measured by flow cytometry.
# [2] = target: T2, full-length human Nectin-4 on cells; assay: flow cytometry competition on CHO-Nectin-4 cells; competitor biotinylated human TIGIT; TIGIT as competitor
# Method: The ability of disclosed Nectin4-specific antibodies to block TIGIT binding to CHO-Nectin-4 cells was assessed by FACS. Briefly, CHO-Nectin-4 cells were incubated with dilutions of the disclosed purified recombinant antibodies. Then, biotinylated human TIGIT protein (SinoBiologic, catalog: 10917-H08H-B, lot: LC13AP0902) was added to the plate. After 30-minute incubation, cells were washed, followed by adding Streptavidin Alexa 647 (1:1000) to the samples. After a 30 minute incubation, the samples were analyzed on a flow cytometry instrument (Intellicyte, IQue plus, Sartorius) for TIGIT blocking activity. The positive control antibody used in this blocking assay is PC2, a Nectin-4 antibody with known blocking activity.
# [3] = target: T2, full-length human Nectin-4 on cells; assay: flow cytometry competition on CHO-Nectin-4 cells; competitor biotinylated human Nectin-1-His; Nectin-1 as competitor
# Method: The ability of disclosed Nectin4-specific antibodies to block Nectin-1 binding to Nectin-4 expressing cells (CHO cells transfected with human Nectin-4) was determined by FACS. Briefly, CHO-Nectin-4 cells were incubated with dilutions of the disclosed Nectin-4 purified recombinant antibodies. Then, biotinylated human Nectin-1 with His tag (ACROBiosystems, catalog number: PV1-H5223, lot: 733-38GS1-47, 0.75 ug/ml) was added to the plate. After 30-minute incubation, cells were washed, followed by adding Streptavidin Alexa 647 (1:1000) to the samples. After a 30 minute incubation, the samples were analyzed on a flow cytometry instrument (Intellicyte, IQue plus, Sartorius) for Nectin-1 blocking activity. The positive control antibody used in this blocking assay is a reference antibody (known to be a recombinant Nectin-4 specific antibody, made by Novarock Biotherapeutics, lot: 03042020KD).
# rat Nectin-4 [4] = target: T1, rat Nectin-4; assay: flow cytometry, transfected 293T cells; +++ EC50 less than 5 nM
# Method: as §1
# mouse Nectin-4 = target: T3, mouse Nectin-4; assay: flow cytometry, transfected 293T cells; + EC50 between 25 nM and 133 nM
# Method: as §1
# rat Nectin-4 [5] = target: T1, rat Nectin-4; assay: flow cytometry, transfected 293T cells; ++ EC50 between 5 nM and 25 nM
# Method: as §1
binder,measurement,setting,value
"N4_mAb 4 (antibody, human IgG1, V domains shown, Tested as chimera (human IgG1/kappa constants); not shown: human IgG1 constant region (Uniprot P01857); human Kappa light chain constant region (UniProt P01834)) VH: DVQLQESGPDLVKPSQSLSLTCTVTGYSITSAYNWHWIRQFPGNKLEWMGYIHYSGRTNYNPSLKSRISITRDTSKNQFFLQLNSLTTEDTATYYCARWITTATGWYLDVWGAGTTVTVSS VL: not shown",EC50,rat Nectin-4 [1],0.025 to 0.133 µM
same,EC50,[2],> 0.13 µM
same,EC50,[3],> 0.13 µM
"N4_mAb 5 (antibody, human IgG1, V domains shown, Tested as chimera (human IgG1/kappa constants); not shown: human IgG1 constant region (Uniprot P01857); human Kappa light chain constant region (UniProt P01834)) VH: EVQLQQSGPDLVKPGASVKISCKASGYSFTGHYMHWVKQSHGKSLEWIGRVNPNNGGSSYNQKFKDKAILTVDKSSTTAYMELRSLTSEDSAVYYCARDPLGGSYGFAYWGQGTLVTVSA VL: DIVLTQSPASLAVSLGQRATISCRASQSVTTSSYSYMHWYQQKPGQPPKLLIKYASNLESGVPARFSGSGSGTDFTLNIHPVEEEDTATYYCQHSWEIPYTFGGGTKLEMK",EC50,rat Nectin-4 [4],< 0.005 µM
same,EC50,mouse Nectin-4,0.025 to 0.133 µM
"N4_mAb 3 (antibody, human IgG1, V domains shown, Tested as chimera (human IgG1/kappa constants); not shown: human IgG1 constant region (Uniprot P01857); human Kappa light chain constant region (UniProt P01834)) VH: EVQLQQSGAELVKPGASVKLSCTVSGFNIKDTYMHWVKQRPEQGLEWIGRIDPANGNTKYDPKFQGKATIIADKASNTAYLQLSSLTSEDAAVYYCAHYYGSSYFAMDCWGQGTSVTVSS VL: DIVMTQSHKFMSTSVGDRVSITCKASQDVSTAVAWYQQKPGQSPKLLIYWASTRHTGVPDRFTGSGSGTDYTLTISSVQTEDLALYYCQQHYSTPLTFGAGTKLELK",EC50,rat Nectin-4 [1],0.025 to 0.133 µM
"N4_mAb 6 (antibody, human IgG1, V domains shown, Tested as chimera (murine variable regions, human IgG1/kappa constants); not shown: human IgG1 constant region (Uniprot P01857); human Kappa light chain constant region (UniProt P01834)) VH: QVQLQQSGPELVKPGASVRISCKASGYTFTTYYIHWVKQRPGQGLEWIGWIYPGNVNTKYTENFKDKATLTADKSSSTAYMQLSSLTSEDSAVYFCARGLYYFDFWGQGTTLTVSS VL: SIVMTQTPKFLLVSAGDRVTITCKASQSVNNDVAWYQQKPGQSPKLLIYYASNRDTGVPDRFTGSGFGTDFTFTISSVQAEDLAVYFCQQDYSSPYTFGGGTKLEIK",EC50,rat Nectin-4 [4],< 0.005 µM
"N4_mAb 7 (antibody, human IgG1, V domains shown, Tested as chimera (murine variable regions, human IgG1/kappa constants); not shown: human IgG1 constant region (Uniprot P01857); human Kappa light chain constant region (UniProt P01834)) VH: QVQLQQSGPELVKPGASVKMSCKASGYTFTTYYIHWVKQRPGQGLEWIGWIYPGNAGIKSNEKFKGKTTLTADKSSSTAYMLLSSLTSEDSAIYFCARGVYFFDYWGQGTTLTVSS VL: SIVMTQTPKFLLVSAGDRVTITCKASQSVNNDVSWFQQKPGQSPKLLIYYASNRYTGVPDRFSGSGYGTDFTFTITTVQAEDLAVYFCQQDYSSPYTFGGGTKLEIK",EC50,rat Nectin-4 [4],< 0.005 µM
"N4_mAb 8 (antibody, human IgG1, V domains shown, Tested as chimera (murine variable regions, human IgG1/kappa constants); not shown: human IgG1 constant region (Uniprot P01857); human Kappa light chain constant region (UniProt P01834)) VH: QVQLQQSGPVLVKPGASVRISCKASGYTFTSYYIHWVKQRPGQGLEWIGWIYPGNVNTKYNENFRDKATLTADKSSSTSYMQLSSLTSEDSAVYFCARGIYYFDYWGQGTTLTVSS VL: IIVMTQTPKFLLVSAGDRVTITCKASQSVNNDVAWYQEKPGQSPKLLIYYASNRDTGVPDRFTGSGYGTDFTFTISTVQAEDLAVYFCHQDYSSPFTFGSGTKLEIK",EC50,rat Nectin-4 [4],< 0.005 µM
"N4_mAb 2 (antibody, human IgG1, V domains shown, Tested as chimera (human IgG1/kappa constants); not shown: human IgG1 constant region (Uniprot P01857); human Kappa light chain constant region (UniProt P01834)) VH: QVQLKQSGPNLVQPSQSLSITCTVSGFSLTTYGAHWVRQSPGKGLEWLGVIWRGGSTDYNAAFMSRLSITKDNSKSQVFFKMNSLQADDTAIYYCAKIGYDGYAMDNWGQGTSVTVSS VL: DFQVTQSPASLSASVGETVTITCRTSENIHNYLAWYQQKQGKSPQLLVYNAKTLADGVPSRFSGSGSGTQYSLKINSLQPEDFGTYYCQHFWSSPWTFGGGTKLEIK",EC50,rat Nectin-4 [5],0.005 to 0.025 µM
